Measurements from the supplement of paper PMC9732359.
± gives the uncertainty stated by the source.

Assay: protein stability index of a GFP-peptide fusion (yeast GPS) (PSI 1-4); higher = more stable; sorted into four equal gates, so the index is relative within each strain
Procedure, shortened: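 For each peptide, the protein stability index sums the read frequency in every gate after multiplying it by the gate number. Read frequencies came from plasmids that were PCR-amplified from each gate and Illumina-sequenced, with reads assigned to strains by barcodes. The gates were four equal bins of GFP/Cherry fluorescence ratio applied to mid-log yeast in leucine-free medium carrying a pooled library of tiled 17-residue yeast protein peptides fused downstream of GFP on a Cherry-expressing plasmid.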

Sequence: RSMLTVVRNMLALTTLS [YCG1]
- protein stability index (doa10∆): 1.91 ± 0.061
- protein stability index (pdr5∆): 1.9 ± 0.067
- protein stability index (san1∆): 2.29 ± 0.065
- protein stability index (ubr1∆): 2.49 ± 0.063

Sequence: SIYKYIHLNELLTNDES [SNF12]
- protein stability index (doa10∆): 2.54 ± 0.063
- protein stability index (pdr5∆): 2.71 ± 0.053
- protein stability index (san1∆): 2.19 ± 0.071
- protein stability index (ubr1∆): 2.63 ± 0.084

Sequence: AACEKLLPPIKIELIKN [RPN12]
- protein stability index (doa10∆): 1.98 ± 0.19
- protein stability index (pdr5∆): 2.25 ± 0.094
- protein stability index (san1∆): 2.44 ± 0.098
- protein stability index (ubr1∆): 1.99 ± 0.072

Sequence: KAEKAEIRKRRASSLKA [RPS6A]
- protein stability index (doa10∆): 2.9 ± 0.25
- protein stability index (pdr5∆): 3.48 ± 0.11
- protein stability index (ubr1∆): 3.06 ± 0.13

Sequence: NILIASLMDTLITPAVR [YCG1]
- protein stability index (doa10∆): 1.41 ± 0.063
- protein stability index (pdr5∆): 1.91 ± 0.073
- protein stability index (san1∆): 1.58 ± 0.13
- protein stability index (ubr1∆): 1.78 ± 0.055

Sequence: GSMFSGDNTSDVDMEDR [RRI1]
- protein stability index (doa10∆): 2.01 ± 0.14
- protein stability index (pdr5∆): 2.55 ± 0.074
- protein stability index (san1∆): 2.51 ± 0.12
- protein stability index (ubr1∆): 2.85 ± 0.16

Sequence: DFYTRHHFTCEITGTSC [ITC1]
- protein stability index (doa10∆): 1.43 ± 0.042
- protein stability index (pdr5∆): 1.64 ± 0.045
- protein stability index (san1∆): 1.51 ± 0.094
- protein stability index (ubr1∆): 1.65 ± 0.045

Sequence: KRSMDAEQLGHASKRHK [RPP1]
- protein stability index (doa10∆): 2.54 ± 0.058
- protein stability index (pdr5∆): 2.79 ± 0.056
- protein stability index (san1∆): 2.68 ± 0.056
- protein stability index (ubr1∆): 2.61 ± 0.054

Sequence: LPLNKPRLEKLINEILL [RGR1]
- protein stability index (doa10∆): 2.53 ± 0.051
- protein stability index (pdr5∆): 2.33 ± 0.041
- protein stability index (san1∆): 2 ± 0.077
- protein stability index (ubr1∆): 2.48 ± 0.041

Sequence: LEDLFSYRNGMASYMLN [YJR042W/NUP85]
- protein stability index (doa10∆): 1.6 ± 0.071
- protein stability index (pdr5∆): 1.25 ± 0.15
- protein stability index (san1∆): 1.89 ± 0.13
- protein stability index (ubr1∆): 2.42 ± 0.11

Sequence: SVIPEVDREAMLKPNII [YCG1]
- protein stability index (doa10∆): 3.06 ± 0.12
- protein stability index (pdr5∆): 3.31 ± 0.14
- protein stability index (san1∆): 3.08 ± 0.14
- protein stability index (ubr1∆): 3.05 ± 0.12

Sequence: ESVLPAARYDYAVAEQC [QCR2]
- protein stability index (doa10∆): 3.15 ± 0.11
- protein stability index (pdr5∆): 3.25 ± 0.11
- protein stability index (san1∆): 2.97 ± 0.11
- protein stability index (ubr1∆): 1.98 ± 0.06

Sequence: QFEIPISDDDDSALRYS [POP4]
- protein stability index (doa10∆): 2.98 ± 0.071
- protein stability index (pdr5∆): 2.75 ± 0.096
- protein stability index (san1∆): 2.54 ± 0.049
- protein stability index (ubr1∆): 3.16 ± 0.038

Sequence: SNNTAATADTTHLHEAL [NUT1]
- protein stability index (doa10∆): 2.37 ± 0.076
- protein stability index (pdr5∆): 3.07 ± 0.084
- protein stability index (san1∆): 3.15 ± 0.11
- protein stability index (ubr1∆): 3.02 ± 0.042

Sequence: GGADQVTRTQQWSMVAQ [SWI1]
- protein stability index (doa10∆): 3.15 ± 0.077
- protein stability index (pdr5∆): 3.31 ± 0.075
- protein stability index (san1∆): 3.03 ± 0.063
- protein stability index (ubr1∆): 3.07 ± 0.052

Sequence: HFNGIRRLDALVEKVYA [ITC1]
- protein stability index (doa10∆): 3.65 ± 0.11
- protein stability index (pdr5∆): 2.77 ± 0.068
- protein stability index (san1∆): 1.94 ± 0.28
- protein stability index (ubr1∆): 2.95 ± 0.089

Sequence: HRSGKIVVQLNGRLNKC [RPS22A]
- protein stability index (pdr5∆): 3.52 ± 0.23
- protein stability index (san1∆): 2.98 ± 0.13
- protein stability index (ubr1∆): 3.36 ± 0.13

Sequence: SNDRVNPLIELTPIQKK [ITC1]
- protein stability index (doa10∆): 2.92 ± 0.2
- protein stability index (pdr5∆): 1.99 ± 0.13
- protein stability index (san1∆): 2.15 ± 0.27
- protein stability index (ubr1∆): 2.65 ± 0.11

Sequence: ESKLRDDLERLKKIRAH [RPS18A]
- protein stability index (doa10∆): 2.78 ± 0.13
- protein stability index (pdr5∆): 1.98 ± 0.087
- protein stability index (san1∆): 1.5 ± 0.16
- protein stability index (ubr1∆): 3.3 ± 0.048

Sequence: HHFTCEITGTSCLTFFQ [ITC1]
- protein stability index (doa10∆): 1.9 ± 0.05
- protein stability index (pdr5∆): 2.2 ± 0.057
- protein stability index (san1∆): 2.04 ± 0.078
- protein stability index (ubr1∆): 2.07 ± 0.047

Sequence: LFKTLFKKLTKDIFRYM [RPB2]
- protein stability index (doa10∆): 1.94 ± 0.061
- protein stability index (pdr5∆): 1.53 ± 0.059
- protein stability index (san1∆): 1.33 ± 0.13
- protein stability index (ubr1∆): 1.66 ± 0.055

Sequence: FAGEAGDTVQFAEYIQA [PRE1]
- protein stability index (doa10∆): 1.72 ± 0.089
- protein stability index (pdr5∆): 1.74 ± 0.094
- protein stability index (san1∆): 1.75 ± 0.13
- protein stability index (ubr1∆): 2.09 ± 0.054

Sequence: GISDDENDEEDIYMHDV [RRP4]
- protein stability index (doa10∆): 3.33 ± 0.13
- protein stability index (pdr5∆): 3.31 ± 0.14
- protein stability index (san1∆): 2.99 ± 0.12
- protein stability index (ubr1∆): 3.46 ± 0.12

Sequence: MTNLTYFLHLSVFNAEL [YCS4]
- protein stability index (doa10∆): 1.62 ± 0.061
- protein stability index (pdr5∆): 1.48 ± 0.047
- protein stability index (san1∆): 1.87 ± 0.09
- protein stability index (ubr1∆): 1.76 ± 0.073

Sequence: VSLCAKNMGLVPMKEEN [SSN2]
- protein stability index (doa10∆): 1.89 ± 0.086
- protein stability index (pdr5∆): 2.38 ± 0.075
- protein stability index (san1∆): 1.99 ± 0.11
- protein stability index (ubr1∆): 2.26 ± 0.093

Sequence: LTVIEKLDSKKILPTDI [SRP68]
- protein stability index (doa10∆): 2.71 ± 0.13
- protein stability index (pdr5∆): 3 ± 0.12
- protein stability index (san1∆): 2.95 ± 0.1
- protein stability index (ubr1∆): 2.71 ± 0.061

Sequence: AIFPYQDPIFGSVLLTL [ECM29]
- protein stability index (doa10∆): 1.69 ± 0.045
- protein stability index (pdr5∆): 1.84 ± 0.057
- protein stability index (san1∆): 1.29 ± 0.12
- protein stability index (ubr1∆): 1.45 ± 0.044

Sequence: VHESLVTQSNILSQQFD [SRB8]
- protein stability index (doa10∆): 2.71 ± 0.07
- protein stability index (pdr5∆): 3.09 ± 0.071
- protein stability index (san1∆): 2.78 ± 0.054
- protein stability index (ubr1∆): 3.02 ± 0.052

Sequence: TVEPVYQMHIKTSKDIA [FAS1]
- protein stability index (doa10∆): 1.29 ± 0.044
- protein stability index (pdr5∆): 1.33 ± 0.063
- protein stability index (san1∆): 1.31 ± 0.081
- protein stability index (ubr1∆): 1.35 ± 0.065

Sequence: ITHAHSLSNPNSTATMQ [PGD1]
- protein stability index (doa10∆): 2.8 ± 0.055
- protein stability index (pdr5∆): 2.44 ± 0.054
- protein stability index (san1∆): 2.5 ± 0.063
- protein stability index (ubr1∆): 2.86 ± 0.043

Sequence: DSDMLTKSHNTVQSWLC [NUT1]
- protein stability index (doa10∆): 2.53 ± 0.18
- protein stability index (pdr5∆): 2.63 ± 0.22
- protein stability index (ubr1∆): 2.87 ± 0.078

Sequence: KKFIEISDVKIQVAAFI [PRP8]
- protein stability index (doa10∆): 2.84 ± 0.058
- protein stability index (pdr5∆): 2.54 ± 0.052
- protein stability index (san1∆): 2.65 ± 0.048
- protein stability index (ubr1∆): 2.55 ± 0.042

Sequence: AASVIGMLVALGRLSVR [RPC82]
- protein stability index (pdr5∆): 1.32 ± 0.07
- protein stability index (san1∆): 1.11 ± 0.23
- protein stability index (ubr1∆): 1.24 ± 0.097

Sequence: MQVYLVPIERVAQLKPF [RPC37]
- protein stability index (doa10∆): 1.9 ± 0.079
- protein stability index (pdr5∆): 1.77 ± 0.065
- protein stability index (san1∆): 1.87 ± 0.063
- protein stability index (ubr1∆): 2.54 ± 0.058

Sequence: DNISSFHSAVENLVQGN [YCG1]
- protein stability index (doa10∆): 3.26 ± 0.08
- protein stability index (pdr5∆): 3 ± 0.064
- protein stability index (san1∆): 3.17 ± 0.067
- protein stability index (ubr1∆): 3.31 ± 0.11

Sequence: IPSSKIDDFTTRLWGSV [SNU114]
- protein stability index (doa10∆): 2.93 ± 0.16
- protein stability index (pdr5∆): 3.05 ± 0.14
- protein stability index (san1∆): 3 ± 0.12
- protein stability index (ubr1∆): 3.21 ± 0.12

Sequence: FEEDEKNSDVWFLDHNY [RPN8]
- protein stability index (doa10∆): 2.7 ± 0.077
- protein stability index (pdr5∆): 1.73 ± 0.073
- protein stability index (san1∆): 1.5 ± 0.14
- protein stability index (ubr1∆): 1.48 ± 0.084

Sequence: EKKGIVQASVTSSTHER [RET1]
- protein stability index (doa10∆): 3.28 ± 0.19
- protein stability index (pdr5∆): 3.1 ± 0.23
- protein stability index (san1∆): 3.45 ± 0.15
- protein stability index (ubr1∆): 3.24 ± 0.11

Sequence: MCQNPMQKPVPFVPVLD [FAS1]
- protein stability index (doa10∆): 1.47 ± 0.039
- protein stability index (pdr5∆): 1.54 ± 0.034
- protein stability index (san1∆): 1.29 ± 0.061
- protein stability index (ubr1∆): 1.52 ± 0.031

Sequence: TVWSANFEYDLSEYDAI [YOR098C/NUP1]
- protein stability index (doa10∆): 2.86 ± 0.27
- protein stability index (pdr5∆): 3.31 ± 0.19
- protein stability index (san1∆): 2.98 ± 0.27
- protein stability index (ubr1∆): 3.06 ± 0.1

Sequence: LFGNNNTNNINNSSSGM [YGL172W/NUP49]
- protein stability index (doa10∆): 3.38 ± 0.16
- protein stability index (pdr5∆): 3.42 ± 0.14
- protein stability index (san1∆): 3 ± 0.12
- protein stability index (ubr1∆): 3.13 ± 0.13

Sequence: GDYGEEEDADQEESFSL [SRB8]
- protein stability index (doa10∆): 3.76 ± 0.28
- protein stability index (pdr5∆): 3.63 ± 0.17

Sequence: QNIMTLPDGKNGNLEEE [MED6]
- protein stability index (doa10∆): 3.37 ± 0.064
- protein stability index (pdr5∆): 3.23 ± 0.11
- protein stability index (san1∆): 3.37 ± 0.056
- protein stability index (ubr1∆): 3.31 ± 0.091

Sequence: EGLDELPKIIQLQGPQW [SOH1]
- protein stability index (doa10∆): 3.16 ± 0.068
- protein stability index (pdr5∆): 3.35 ± 0.057
- protein stability index (san1∆): 3.18 ± 0.043
- protein stability index (ubr1∆): 3.15 ± 0.056

Sequence: KIPLFTFAKSKNYSRPS [SIR4]
- protein stability index (doa10∆): 2.39 ± 0.092
- protein stability index (pdr5∆): 2.12 ± 0.081
- protein stability index (san1∆): 1.74 ± 0.1
- protein stability index (ubr1∆): 2.42 ± 0.064

Sequence: ARKELPIFDYIHIDALE [SIR3]
- protein stability index (doa10∆): 2.3 ± 0.053
- protein stability index (pdr5∆): 2.34 ± 0.056
- protein stability index (san1∆): 2.21 ± 0.059
- protein stability index (ubr1∆): 2.5 ± 0.047

Sequence: VHEWEVSKPSLLHETND [PRP8]
- protein stability index (doa10∆): 3.25 ± 0.11
- protein stability index (pdr5∆): 3.05 ± 0.14
- protein stability index (ubr1∆): 3.23 ± 0.072

Sequence: YCDKNFRENMSKEETVD [PRE3]
- protein stability index (doa10∆): 3.02 ± 0.076
- protein stability index (pdr5∆): 3.09 ± 0.073
- protein stability index (san1∆): 3.04 ± 0.066
- protein stability index (ubr1∆): 2.92 ± 0.049

Sequence: IPVKLLNEAQGHIVSLE [SMD3]
- protein stability index (doa10∆): 3.14 ± 0.12
- protein stability index (pdr5∆): 3.42 ± 0.16
- protein stability index (san1∆): 2.77 ± 0.093
- protein stability index (ubr1∆): 3.08 ± 0.11
